We go through 39 sequences from the supplement of paper PMC7877785.

The data set is described as follows: self-splicing fitness, log relative to wild type (ln ratio); higher = more splicing; Tetrahymena group I intron in knt gene, E. coli kanamycin selection, DiMSum; sequences stand for … in CUCUCU…GGAGGGAAAAGUUAUCAGGCAUGCACCUGGUAGCUAGUCUUUAAACCAAUAGAUUGCAUCGGUUUAAAAGGCAAGACCGUCAAAUUGCGGGAAAGGGGUCAACAGCCGUUCAGUACCAAGUCUCAGGGGAAACUUUGAGAUGGCCUUGCAAAGGGUAUGGUAAUAAGCUGACGGACAUGGUCCUAACCACGCAGCCAAGUCCUAAGUCAACAGAUCUUCUGUUGAUAUGGAUGCAGUUCACAGACUAAAUGUCGGUCGGGGAAGAUGUAUUCUUCUCAUAAGAUAUAGUCGGACCUCUCCUUAAUGGGAGCUAGCGGAUGAAGUGAUGCAACACUGGAGCCGCUGGGAACUAAUUUGUAUGCGAAAGUAUAUUGAUUAGUUUUGGAGUACUCGUGGUCG
The procedure, abridged:
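Fitness was computed with DiMSum as the error-weighted combination of replicate fold changes, kanamycin versus none, each normalised to wild type. The library randomised all eight intron nucleotides of the P1ex region, with the intron placed in the knt kanamycin-resistance gene on pET-22b(+) in E. coli BL21(DE3). Six replicate transformations were grown overnight at 37°C or 30°C on LB agar with or without 25 μg/mL kanamycin, plus 100 μg/mL carbenicillin, 50 μM IPTG and 0.2% rhamnose. Pooled colonies were amplicon-sequenced on an Illumina HiSeq 2500.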

± gives the uncertainty stated by the source.

Take UCACAGCAAUAUUACGUGAG: the “self-splicing fitness (ln)” value is -0.886 ± 0.03 (30 °C) and -0.396 ± 0.052 (37 °C).
On to AUCCAGCAAUAUUACGGACG, for which the “self-splicing fitness (ln)” value is 0.0252 ± 0.082 (30 °C) and -0.0752 ± 0.089 (37 °C).
For the sequence UUCGAGCAAUAUUACGAAGA, the “self-splicing fitness (ln)” value is, setting by setting: (30 °C) -2 ± 0.29; (37 °C) -1.36 ± 0.25.
For AGACAGCAAUAUUACGAACG the same measures were -1.29 ± 0.1 and -0.106 ± 0.12.
As for AUGGAGCAAUAUUACGUGGG, the “self-splicing fitness (ln)” value is, setting by setting: (30 °C) -3.61 ± 0.37; (37 °C) -0.89 ± 0.27.
For CCGCAGCAAUAUUACGAAUA the same measures were -3.37 ± 0.38 and -2.62 ± 0.38.
Regarding UCAUAGCAAUAUUACGAACU, the “self-splicing fitness (ln)” value by setting is: (30 °C) -2.36 ± 0.33; (37 °C) -2.08 ± 0.26.
For CGGAAGCAAUAUUACGGGAU the same measures were -3.67 ± 0.42 and -2.48 ± 0.25.
In the case of GGGGAGCAAUAUUACGCAGU, the “self-splicing fitness (ln)” value (37 °C) is -1.35 ± 0.36.
As for CGAAAGCAAUAUUACGUAAA, the “self-splicing fitness (ln)” value is, setting by setting: (30 °C) -2.45 ± 0.23; (37 °C) -1.92 ± 0.31.
Taken in the same sequence, the figures for CUGCAGCAAUAUUACGAUGC were -3.13 ± 0.24 and -1.92 ± 0.43.
Turning to CUAAAGCAAUAUUACGUUAC, the “self-splicing fitness (ln)” value (30 °C) is -3.78 ± 0.26 and the “self-splicing fitness (ln)” value (37 °C) was -2.06 ± 0.31.
For the sequence UUGCAGCAAUAUUACGGGUU, the “self-splicing fitness (ln)” value was -3.77 ± 0.25 (30 °C) and -2.15 ± 0.21 (37 °C).
With AGCUAGCAAUAUUACGCCUU, the “self-splicing fitness (ln)” value is, setting by setting: (30 °C) -1.7 ± 0.1; (37 °C) -0.609 ± 0.08.
For AAUGAGCAAUAUUACGGUUG the same measures were -2.99 ± 0.13 and -2.81 ± 0.19.
ACACAGCAAUAUUACGUGCG: the “self-splicing fitness (ln)” value by setting is: (30 °C) -0.45 ± 0.044; (37 °C) -0.606 ± 0.063.
UUAGAGCAAUAUUACGCUAG: the “self-splicing fitness (ln)” value reads like this: (30 °C) -0.574 ± 0.12; (37 °C) 0.349 ± 0.15.
For the sequence UUGUAGCAAUAUUACGUAGC, the “self-splicing fitness (ln)” value is, setting by setting: (30 °C) -3.44 ± 0.31; (37 °C) -2.87 ± 0.25.
Turning to UUGCAGCAAUAUUACGACAC, the “self-splicing fitness (ln)” value runs as follows: (30 °C) -1.37 ± 0.19; (37 °C) -1.22 ± 0.47.
With GACUAGCAAUAUUACGAACU, the “self-splicing fitness (ln)” value reads like this: (30 °C) 0.186 ± 0.15; (37 °C) 1.04 ± 0.22.
For the sequence UACAAGCAAUAUUACGUAAG, the “self-splicing fitness (ln)” value is -3.96 ± 0.21 (30 °C) and -3.05 ± 0.19 (37 °C).
On to UAACAGCAAUAUUACGCACC, for which the “self-splicing fitness (ln)” value runs as follows: (30 °C) -2.33 ± 0.29; (37 °C) -1.88 ± 0.43.
Taken in the same sequence, the figures for GAUAAGCAAUAUUACGACGA were -0.165 ± 0.12 and -0.626 ± 0.11.
In the case of GCCGAGCAAUAUUACGGGAA, the “self-splicing fitness (ln)” value is -1.01 ± 0.073 (30 °C) and -0.813 ± 0.088 (37 °C).
Turning to CGUAAGCAAUAUUACGUACG, the “self-splicing fitness (ln)” value runs as follows: (30 °C) -3.57 ± 0.25; (37 °C) -1.59 ± 0.23.
For CGCGAGCAAUAUUACGGUUG the same measures were -1.73 ± 0.068 and -1.76 ± 0.12.
For CUAAAGCAAUAUUACGUGAA, the “self-splicing fitness (ln)” value was -3.29 ± 0.23 (30 °C) and -3.36 ± 0.32 (37 °C).
Regarding UGCUAGCAAUAUUACGAAUA, the “self-splicing fitness (ln)” value is -1.27 ± 0.13 (30 °C) and -1.16 ± 0.12 (37 °C).
As to UGAGAGCAAUAUUACGCAGA, the “self-splicing fitness (ln)” value (30 °C) is -3.1 ± 0.34.
Take AGCUAGCAAUAUUACGGCAA: the “self-splicing fitness (ln)” value runs as follows: (30 °C) -0.629 ± 0.081; (37 °C) -0.284 ± 0.097.
Consider UGAGAGCAAUAUUACGCAAC, for which the “self-splicing fitness (ln)” value (37 °C) is -1.88 ± 0.47.
With CACCAGCAAUAUUACGCCUU, the “self-splicing fitness (ln)” value is -3.62 ± 0.14 (30 °C) and -1.72 ± 0.12 (37 °C).
Taken in the same sequence, the figures for CCACAGCAAUAUUACGAUAG were -1.17 ± 0.065 and 0.206 ± 0.084.
Taken in the same sequence, the figures for UAAAAGCAAUAUUACGAAUG were -1.18 ± 0.067 and 0.0515 ± 0.081.
Taken in the same sequence, the figures for CCUGAGCAAUAUUACGGAGC were -1.59 ± 0.47 and -1.9 ± 0.38.
Regarding CAUUAGCAAUAUUACGCUGC, the “self-splicing fitness (ln)” value reads like this: (30 °C) -3.92 ± 0.28; (37 °C) -2.43 ± 0.24.
Take AUAAAGCAAUAUUACGCCCC: the “self-splicing fitness (ln)” value was -0.123 ± 0.16 (30 °C) and 0.0897 ± 0.24 (37 °C).
On to UCUGAGCAAUAUUACGAAAU, for which the “self-splicing fitness (ln)” value runs as follows: (30 °C) -4.41 ± 0.46; (37 °C) -2.24 ± 0.4.
Take GGAUAGCAAUAUUACGUGGG: the “self-splicing fitness (ln)” value (37 °C) was -0.24 ± 0.16.
